Assay in all cases: purified protein
Common to all, as to format: biochemical, Camellia sinensis
Common to all, as to conditions: 0.24 mM NADPH, citrate-phosphate buffer pH 7.2, 25°C

Substrate in data set [1]: O=C1c2c(O)cc(O)cc2O[C@H](c2cc(O)c(O)c(O)c2)[C@H]1O
Substrate in data set [2]: O=C1c2c(O)cc(O)cc2O[C@H](c2ccc(O)c(O)c2)[C@H]1O
Substrate in data set [3]: O=C1c2c(O)cc(O)cc2O[C@H](c2ccc(O)cc2)[C@H]1O

B1: CsDFRa (Camellia sinensis) (protein)
chain: MKDSVASATASAPGTVCVTGAAGFIGSWLVMRLLERGYIVRATVRDPANLKKVKHLLDLPKADTNLTLWKADLNEEGSFDEAIEGCSGVFHVATPMDFESKDPENEVIKPTINGVLSIIRSCTKAKTVKRLVFTSSAGTVNVQEHQQPVFDENNWSDLDFINKKKMTGWMYFVSKTLAEKAAWEAAKENNIDFISIIPTLVVGPFIMPTFPPSLITALSPITRNEGHYSIIKQGQFVHLDDLCESHIFLYERPQAEGRYICSSHDATIHDLAKLMREKWPEYNVPTEFKGIDKDLPVVSFSSKKLIGMGFEFKYSLEDMFRGAIDTCREKGLLPHSFAENPVNGNKV
notes: full-length ORF in pET-32a, E. coli Rosetta (DE3), Ni Sepharose purified, vector tag removal not mentioned
Regarding B1, the Km in “purified protein [1]” is 43.0 µM; in the data set “purified protein [2]” it was 8.0 µM; in the data set “purified protein [3]” it was 539.8 µM.

B2: CsDFRa (Camellia sinensis; N141A) (protein)
chain: MKDSVASATASAPGTVCVTGAAGFIGSWLVMRLLERGYIVRATVRDPANLKKVKHLLDLPKADTNLTLWKADLNEEGSFDEAIEGCSGVFHVATPMDFESKDPENEVIKPTINGVLSIIRSCTKAKTVKRLVFTSSAGTVAVQEHQQPVFDENNWSDLDFINKKKMTGWMYFVSKTLAEKAAWEAAKENNIDFISIIPTLVVGPFIMPTFPPSLITALSPITRNEGHYSIIKQGQFVHLDDLCESHIFLYERPQAEGRYICSSHDATIHDLAKLMREKWPEYNVPTEFKGIDKDLPVVSFSSKKLIGMGFEFKYSLEDMFRGAIDTCREKGLLPHSFAENPVNGNKV
notes: as for B1
With B2, the Km in “purified protein [1]” worked out at 90.6 µM; in “purified protein [2]”, 88.5 µM; in “purified protein [3]”, 398.1 µM.

B3: CsDFRa (Camellia sinensis; N141D) (protein)
chain: MKDSVASATASAPGTVCVTGAAGFIGSWLVMRLLERGYIVRATVRDPANLKKVKHLLDLPKADTNLTLWKADLNEEGSFDEAIEGCSGVFHVATPMDFESKDPENEVIKPTINGVLSIIRSCTKAKTVKRLVFTSSAGTVDVQEHQQPVFDENNWSDLDFINKKKMTGWMYFVSKTLAEKAAWEAAKENNIDFISIIPTLVVGPFIMPTFPPSLITALSPITRNEGHYSIIKQGQFVHLDDLCESHIFLYERPQAEGRYICSSHDATIHDLAKLMREKWPEYNVPTEFKGIDKDLPVVSFSSKKLIGMGFEFKYSLEDMFRGAIDTCREKGLLPHSFAENPVNGNKV
notes: as for B1
For the protein B3, the Michaelis-Menten constant (Km) in the data set “purified protein [1]” is 37.2 µM; in “purified protein [2]”, 252.0 µM.

For orientation: Km means the concentration of substrate that gives half-maximal velocity.

The values are drawn from paper PMC6932780, “Comprehensive analysis of putative dihydroflavonol 4-reductase gene family in tea plant” (PLoS ONE, 2019).
